In patent US20230203156A1, “ANTI-MDR1 ANTIBODIES AND USES THEREOF” (KENJOCKETY BIOTECHNOLOGY, INC., priority 2020, published 2023):
“Also recorded” adds a separate entry of the source.

What was measured:
[1] = tested on: A2780 ADR ovarian carcinoma; assay: A2780 ADR drug-resistant ovarian carcinoma model in nude mice; format: in vivo; conditions: for tumor volume, single agent: antibody as a single agent; for tumor volume, in combination with paclitaxel: antibody plus paclitaxel
Protocol: (§1) Anti-ABCB1 antibodies B1.129, B1.261, B1.223, B1.225, B1.188, B1.28, and B1.226 were tested for effect on growth of tumors in immunodeficient mice. The following cancer cell lines were used for generating tumor models.
A2780 ADR: The adriamycin-resistant cell line A2780ADR has been developed by exposure of the parent A2780 cell line (Sigma catalogue no. 93112519) to adriamycin. A2780ADR is cross-resistant to melphalan and vinblastine. To retain resistance adriamycin has to be added to the media. The cells grow as a monolayer and in suspension in spinner cultures and are tumorigenic in immune deficient mice. Together with the cisplatin-resistant variant A2780cis these lines only differ in their exposure to a single drug and should facilitate the search for molecular changes responsible for the expression of pleiotropic drug resistance in human ovarian cancer.
Nude mice were implanted with A2780 ADR cells to model ovarian carcinoma. Anti-B1 monoclonal antibodies are efficacious in A2780 ADR ovarian carcinoma model in nude mice.

[2] = molecular target: T1, human MDR1 (Homo sapiens, UniProt P08183); assay: Antibody binding/titration to 293T cells overexpressing human MDR1 (FACS); conditions: 293T cell line overexpressing human MDR1
T1 construct: expressed in transfected cells
Protocol: Antibody binding to cells was evaluated by flow cytometry. 293T cells stably transfected to express human ABCB1 (293T_KPB1_OX) were washed once in flow cytometry buffer (PBS + 2% FBS + 0.02% sodium azide), resuspended at 2 x 10 \^6 cells/mL in flow cytometry buffer, and dispensed into 96-well microtiter plates at 0.1 mL/well. In the figures, “B1” refers to ABCB1 (also known as MDR1 or Pgp). Recombinant antibodies were added to cells at 5 ug/mL for initial binding confirmation, or serially diluted from 100 ug/mL in flow cytometry buffer. After incubating cells on ice for 30 min, cells were washed twice with flow cytometry buffer. Bound antibody was detected with PE-labeled F(ab′)2 fragment goat anti-human IgG (Jackson ImmunoResearch) and evaluated on an Attune NxT flow cytometer.
Binding titration of recombinant antibodies to ABCB1 transfectants was performed by 3-fold serial dilution of antibodies from 666.7 nM. Diluted antibody in flow cytometry buffer was incubated with cells on ice for 30 min. After 2 washes with flow cytometry buffer, bound antibody was detected with PE-labeled F(ab′)2 fragment goat anti-human IgG (Jackson ImmunoResearch) diluted 1:200 in flow cytometry buffer and incubated with cells for 20 min on ice. After 2 washes with flow cytometry buffer fluorescence was measured on an Attune NxT flow cytometer. Data were analyzed with GraphPad Prism 8.0 software to determine EC50′s.
(§2) Anti-MDR1 mAb B1.129 and a humanized version thereof were assessed for binding to 293T cell line overexpressing human MDR1 or to 293T cells transfected with cynomolgus MDR1. […] B1.129.hz1 and B1.129.hz2 antibodies are the same as the humanized versions B1.129.huH1-huL1(KV3) and B1.129.huH1-huL1(KV1), respectively, listed in Table 2. FIG. 10C summarizes the binding data for the B1.129 antibody.

[3] = tested on: cynomolgus MDR1; assay: Antibody binding to 293T cells transfected with cynomolgus MDR1
Chain of cynomolgus MDR1 (as listed by the source): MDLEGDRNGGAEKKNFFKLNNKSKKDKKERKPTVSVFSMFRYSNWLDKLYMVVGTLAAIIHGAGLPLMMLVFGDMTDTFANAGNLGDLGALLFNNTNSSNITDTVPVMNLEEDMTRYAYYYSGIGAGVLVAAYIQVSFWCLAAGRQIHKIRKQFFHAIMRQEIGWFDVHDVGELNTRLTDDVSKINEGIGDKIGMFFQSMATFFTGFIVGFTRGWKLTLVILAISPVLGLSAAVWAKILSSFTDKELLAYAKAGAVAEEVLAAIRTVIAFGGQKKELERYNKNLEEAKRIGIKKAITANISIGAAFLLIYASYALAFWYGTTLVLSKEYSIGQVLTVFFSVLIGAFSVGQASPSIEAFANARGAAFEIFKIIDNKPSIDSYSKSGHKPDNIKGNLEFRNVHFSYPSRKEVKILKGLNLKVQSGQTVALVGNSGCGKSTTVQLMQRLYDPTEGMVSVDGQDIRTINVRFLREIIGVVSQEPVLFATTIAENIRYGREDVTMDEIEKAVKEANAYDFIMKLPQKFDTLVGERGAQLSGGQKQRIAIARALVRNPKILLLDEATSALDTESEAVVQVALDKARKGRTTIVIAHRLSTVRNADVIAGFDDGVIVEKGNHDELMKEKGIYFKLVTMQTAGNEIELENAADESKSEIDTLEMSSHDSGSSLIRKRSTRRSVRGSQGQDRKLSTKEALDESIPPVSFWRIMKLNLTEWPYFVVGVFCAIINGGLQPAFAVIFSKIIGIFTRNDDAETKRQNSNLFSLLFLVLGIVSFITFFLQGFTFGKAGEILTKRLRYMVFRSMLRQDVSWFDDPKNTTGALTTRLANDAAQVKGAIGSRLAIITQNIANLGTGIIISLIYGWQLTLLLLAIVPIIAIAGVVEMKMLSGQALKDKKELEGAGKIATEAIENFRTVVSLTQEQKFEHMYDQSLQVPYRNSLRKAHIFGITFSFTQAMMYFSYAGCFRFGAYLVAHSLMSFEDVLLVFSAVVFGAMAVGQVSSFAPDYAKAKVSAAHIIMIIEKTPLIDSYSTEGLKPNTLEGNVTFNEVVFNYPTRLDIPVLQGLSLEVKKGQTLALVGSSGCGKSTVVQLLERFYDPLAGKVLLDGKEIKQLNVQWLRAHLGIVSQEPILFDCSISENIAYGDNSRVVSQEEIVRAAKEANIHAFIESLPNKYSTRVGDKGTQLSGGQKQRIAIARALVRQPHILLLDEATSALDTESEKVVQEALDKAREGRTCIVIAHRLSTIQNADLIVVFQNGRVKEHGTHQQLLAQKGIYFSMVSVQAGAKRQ
Protocol: as §2
Anti-MDR1 mAb B1.28 and a humanized version thereof were assessed for binding to 293T cell line overexpressing human MDR1 or to 293T cells transfected with cynomolgus MDR1.

[4] = tested on: MES-SA DX5 uterine sarcoma; assay: MES-SA DX5 drug-resistant uterine sarcoma model in nude mice; format: in vivo; conditions: for tumor volume / tumor growth, single agent / tumor volume / tumor growth, in combination with paclitaxel: MES-SA DX5, nude mice; for tumor volume / tumor growth, single agent: antibody as a single agent; for tumor volume / tumor growth, in combination with paclitaxel: antibody plus paclitaxel
Protocol: as §1
MES-SA DX5: The multi drug-resistant cell line MES-SA/Dx5 (Sigma. 95051031) was derived from the human uterine sarcoma cell line MES-SA (Sigma Catalogue number. 95051030) which was originally obtained from a tumour from a person at the time of hysterectomy. […] Cross resistance to bleomycin, cisplatin, carmustine, 5-fluorouracil or methotrexate was not observed.
Nude mice were implanted with MES-SA DX5 cells to model uterine sarcoma. Anti-B1 monoclonal antibodies are efficacious in MES-SA DX5 uterine sarcoma model in nude mice.

[5] = molecular target: T1, human MDR1; assay: Efflux blockade of MDR1 fluorescent substrates (flow cytometry); format: cell-based
Protocol: HEK 293T cells expressing human MDR1 or MES-SA/DX5 cells expressing human MDR1 were washed several times and aliquoted into 96-well plates as 50 µl aliquots/well at a cell density of 1 x 10e6 cells per ml in phenol red-free DMEM. Cells were mixed with 300 nM to 1 nM antibodies and incubated for 1 h at 37° C. To determine efflux blockade cells were incubated in the presence of B1 fluorescent substrates as follows: 0.6 µM Rhodamine; 5 µM […] (DiOC2(3)) or 0.6 µM Calcein AM for 1.5 h at 37° C. The cells were then washed twice and finally resuspended in […] PBS. Rhodamine, DiOC2(3) or Calcein AM fluorescence were measured by flow cytometry.
Effect of anti-MDR1 antibodies on efflux of MDR1 substrates Calcein, DIOC2, and Rhodamine was assessed as described in efflux blockade experimental procedure.

[6] = tested on: human MDR1 extracellular loops 1 and 4 (ECD1, ECD4); assay: Epitope mapping with mutant human MDR1 expressed on 293T cells (flow cytometry); format: binding; conditions: mutant versus WT human ABCB1; preliminary epitope mapping
Description: (§3) To determine binding of anti-MDR1 mAbs listed in Table 2 to the two major extracellular loops 1 and 4 of MDR1, various mutations were constructed to alter or substitute these two loops. To examine binding to cynomolgus extracellular loops, the extracellular loop 1 and/or loop 4 of cynomolgus MDR1 were grafted (with a C-terminal FLAG tag) to substitute for the human loops in the human MDR1 using standard techniques. To examine binding dependence on the normal human loops, MDR1 variants with deletion 79-102 and deletion 82-99 in loop 1 were also generated. Loop 1 is also referred to as ECD1. Loop 4 is also referred to as ECD4. These mutant MDR1 efflux pump variants were expressed on 293T cells using standard methods to generate cells that could be used to distinguish binding of various anti-MDR1 mAbs. The different cells were incubated with different anti-MDR1 mAbs for about 1 hour at 4° C. The cells were washed twice with FACS buffer (PBS containing 0.5% BSA). Alexa647 labeled goat anti-human antibody was added as a secondary antibody, and the samples were incubated on ice for another 1 hour. Samples were washed again and analyzed by flow cytometry.
(§4) FIG. 9 summarizes the findings from preliminary epitope mapping using mutant human MDR1. […] For example, anti-MDR1 mAb B1.129 requires ECD1 and ECD4 for binding to human MDR1. All of the anti-MDR1 antibodies contact ECD4. […] ECD1 refers to the first extracellular domain of human ABCB1, ECD4 refers to the fourth extracellular domain of human ABCB1 and “others” refers to the remainder of the extracellular domains 2-3 and 5-6 of human ABCB1. Only binding to ECD1 and ECD4 was tested.

[7] = molecular target: T2, human MDR1 extracellular loops 1 and 4 (ECD1, ECD4) (Homo sapiens, UniProt P08183); assay: as above; format: binding; conditions: extracellular loop 1 and extracellular loop 4
T2 construct: FLAG (C); expressed in transfected cells; host or cells: 293T
Description: as §3, §4

| Molecule | tumor volume, single agent [1] | tumor volume, in combination with paclitaxel [1] | binding to human MDR1 (hB1) [2] | binding to cynomolgus MDR1 (cB1) [3] | tumor volume / tumor growth, single agent [4] | tumor volume / tumor growth, in combination with paclitaxel [4] | sensitization of MES-SA DX5 uterine sarcoma to paclitaxel ([4]; MES-SA DX5 tumors in vivo) | inhibition of efflux of DIOC2 ([5]; 293T.hB1 cell line) | inhibition of efflux of Rhodamine ([5]; 293T.hB1 cell line) | inhibition of efflux of DIOC2 ([5]; MES-SA/Dx5 cells) | inhibition of efflux of Rhodamine ([5]; MES-SA/Dx5 cells) | inhibition of efflux of Calcein ([5]; cell line not given) | ECD1 required for antibody binding to human ABCB1 [6] | ECD4 required for antibody binding to human ABCB1 [6] | epitope on human MDR1 [7] |
| --- | --- | --- | --- | --- | --- | --- | --- | --- | --- | --- | --- | --- | --- | --- | --- |
| B1.261: anti-MDR1 antibody, Mouse; VH SEQ ID NO:118, VL SEQ ID NO:122 (antibody, listed as Mus musculus, V domains shown) VH: QVQLKESGPGLVAPSQSLSITCTVSGFSLTSYGVHWVRQPPGKGLEWLVVIWSDGSTTYNSALKSRLSISKDNSKSQVFLKMNSLQIDDTAMYYCARHGRWLLQRGGAMDYWGQGTSVTVSS VL: DVVMTQAPKFMSTSVGDRVSVTCRASQNVGSYIAWYQQKLGQSPKALIYSASYRCSGVPDRFTGSGAGTDFTLTIRNVQSEDLAEYFCQQYNSYPLTFGGGTKLEIK | decreased tumor volume | decreased tumor volume | bind to hB1 and cB1 | bind to hB1 and cB1 | decreased tumor volume | decreased tumor volume | sensitized | – | – | – | – | – | – | – | – |
| B1.28: anti-MDR1 antibody, Mouse; VH SEQ ID NO:14, VL SEQ ID NO:18 (antibody, listed as Mus musculus, V domains shown) VH: EVKLVESGGGLVKPGGSLKLSCAASGFTFGLYTMSWVRQTPERRLEWVATISSGGSNTYYPDSVKGRFTISRDNAKNNLFLQMNSLRSEDTALYYCARYYRYDAWFAYWGQGTLVTVSS VL: DVLLTQTPLSLPVSLGDQASISCRSSQNIVHSTGNTYLDWYLQKPGQSPKLLIYKVSNRFSGVPDRFSGSGSGTDFTLKISRVEAEDLGVYFCFQGSHIPRTFGGGTKLEIK | decreased tumor volume | decreased tumor volume | binds to both hB1 and cB1 | binds to both hB1 and cB1 | – | – | – | – | – | – | – | – | – | – | – |
| B1.129: anti-MDR1 antibody, Mouse; VH SEQ ID NO:56, VL SEQ ID NO:60 (antibody, listed as Mus musculus, V domains shown) VH: EVQLQQSGPELVKPGASVKMSCKASGYTFSTYVIHWVKQKPGQGLEWIGYIYPYNDYTKYNEKFKDKATLTSDKSSSTAYMEIRSLTSEDSAVYYCSRAYYGNLVGYGVDYWGQGTSVTVSS VL: QIVLTQSPAILPASPGEKVTMTCRASSSVSFIYWYQQRPGSSPKPWIFATSNLASGVPARFSGSGSGTSYSLTISRVEAEDAATYYCHQWGSNLPTFGGGTKLEIK | decreased tumor volume | decreased tumor volume | binds | binds | decreased tumor volume; also recorded: more effective in inhibiting tumor growth than 15D3 antibody | decreased tumor volume; also recorded: more effective in inhibiting tumor growth than 15D3 antibody | – | inhibited efflux | inhibited efflux | inhibited efflux | inhibited efflux | inhibited efflux of Calcein to a greater extent than the anti-MDR1 antibody 15D3 | requires | requires | bind to an epitope comprising extracellular loop 1 and extracellular loop 4 |
| B1.129.huH1-huL1(KV3): humanized B1.129; VH SEQ ID NO:63, VL SEQ ID NO:64 (antibody, V domains shown, humanized sequence) VH: EVQLVQSGAEVKKPGASVKVSCKASGYTFSTYVIHWVRQAPGQGLEWIGYIYPYNDYTKYNEKFKDRATLTSDKSTSTAYMELRSLRSDDTAVYYCSRAYYGNLVGYGVDYWGQGTTVTVSS VL: EIVLTQSPATLSLSPGERATLSCRASSSVSFIYWYQQKPGQSPRPWIFATSNLASGVPARFSGSGSGTDYTLTISSLEPEDFAVYYCHQWGSNLPTFGGGTKLEIK | – | – | binds to both hB1 and cB1 with a lower affinity | binds to both hB1 and cB1 with a lower affinity | – | – | – | – | – | – | – | – | – | – | – |
| B1.129.huH1-huL1(KV1): humanized B1.129; VH SEQ ID NO:63, VL SEQ ID NO:65 (antibody, V domains shown, humanized sequence) VH: EVQLVQSGAEVKKPGASVKVSCKASGYTFSTYVIHWVRQAPGQGLEWIGYIYPYNDYTKYNEKFKDRATLTSDKSTSTAYMELRSLRSDDTAVYYCSRAYYGNLVGYGVDYWGQGTTVTVSS VL: DIQLTQSPSSLSASVGDRVTITCRASSSVSFIYWYQQKPGKSPKPWIFATSNLASGVPSRFSGSGSGTDYTLTISSLQPEDFATYYCHQWGSNLPTFGGGTKLEIK | – | – | did not show significant binding | did not show significant binding | – | – | – | – | – | – | – | – | – | – | – |
